Results on one molecule are retold here after article PMC4190069.

For data set [1], the target named is Rad51 (wild type);Rad52 (wild type);RPA (wild type) (Saccharomyces cerevisiae;Saccharomyces …, UniProt P25454;P06778;P22336;P26754;P26755 1-400;1-471;1-621;1-273;1-122, ||). As to the kind of experiment: bead pull-down.
Data set [2] addresses RPA (wild type);Rad52 (wild type) (Saccharomyces cerevisiae;Saccharomyces …, UniProt P22336;P26754;P26755;P06778 1-621;1-273;1-122;1-471, |). Description: bead pull-down.

Sequence of RPA (wild type);Rad52 (wild type) (P22336 whole entry, chain 1 of 4): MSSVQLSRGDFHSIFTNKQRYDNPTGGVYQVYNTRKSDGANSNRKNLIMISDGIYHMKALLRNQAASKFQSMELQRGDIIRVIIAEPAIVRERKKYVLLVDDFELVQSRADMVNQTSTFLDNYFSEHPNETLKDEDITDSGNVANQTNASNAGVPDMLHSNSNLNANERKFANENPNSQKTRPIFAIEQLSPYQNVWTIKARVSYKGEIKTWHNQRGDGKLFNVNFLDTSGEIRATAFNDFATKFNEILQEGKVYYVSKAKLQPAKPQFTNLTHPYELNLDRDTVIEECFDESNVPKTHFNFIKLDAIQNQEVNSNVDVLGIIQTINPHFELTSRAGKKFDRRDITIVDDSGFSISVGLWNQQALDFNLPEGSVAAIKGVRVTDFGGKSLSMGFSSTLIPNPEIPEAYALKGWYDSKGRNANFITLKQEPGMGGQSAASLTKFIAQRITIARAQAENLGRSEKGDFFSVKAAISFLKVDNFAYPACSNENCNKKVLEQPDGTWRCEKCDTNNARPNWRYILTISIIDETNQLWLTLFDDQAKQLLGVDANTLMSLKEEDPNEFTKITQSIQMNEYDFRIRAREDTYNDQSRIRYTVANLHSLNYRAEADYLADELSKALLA
Sequence of RPA (wild type);Rad52 (wild type) (P26754 whole entry, chain 2 of 4): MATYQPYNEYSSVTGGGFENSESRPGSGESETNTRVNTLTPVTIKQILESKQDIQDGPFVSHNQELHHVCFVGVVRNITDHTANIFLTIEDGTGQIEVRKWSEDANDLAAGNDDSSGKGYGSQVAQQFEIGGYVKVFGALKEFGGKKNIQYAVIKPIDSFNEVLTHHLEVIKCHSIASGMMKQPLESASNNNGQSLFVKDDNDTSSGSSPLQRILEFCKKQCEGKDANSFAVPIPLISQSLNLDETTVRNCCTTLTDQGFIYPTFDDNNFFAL
Sequence of RPA (wild type);Rad52 (wild type) (P26755 whole entry, chain 3 of 4): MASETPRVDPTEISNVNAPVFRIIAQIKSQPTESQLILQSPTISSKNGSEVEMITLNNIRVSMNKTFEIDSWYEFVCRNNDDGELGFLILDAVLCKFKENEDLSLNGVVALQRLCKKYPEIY
Sequence of RPA (wild type);Rad52 (wild type) (P06778 whole entry, chain 4 of 4): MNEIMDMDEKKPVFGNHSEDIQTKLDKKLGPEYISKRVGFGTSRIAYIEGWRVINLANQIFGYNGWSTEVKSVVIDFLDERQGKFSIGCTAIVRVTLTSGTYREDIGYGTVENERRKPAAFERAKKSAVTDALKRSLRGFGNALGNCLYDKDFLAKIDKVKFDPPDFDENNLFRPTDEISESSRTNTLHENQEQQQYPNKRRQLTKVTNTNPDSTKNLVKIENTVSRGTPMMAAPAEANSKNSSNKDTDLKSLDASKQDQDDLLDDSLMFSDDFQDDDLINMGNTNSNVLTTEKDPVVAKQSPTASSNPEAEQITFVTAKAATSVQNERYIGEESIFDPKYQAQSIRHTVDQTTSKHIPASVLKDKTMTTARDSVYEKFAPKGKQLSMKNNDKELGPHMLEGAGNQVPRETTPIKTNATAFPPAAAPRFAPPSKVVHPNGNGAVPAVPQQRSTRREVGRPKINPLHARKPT

B1: 74-nt biotinylated ssDNA oligo (ssDNA)
DNA: TTTTTTGTAAAACGACGGCCAGTGCCAAGCTTGCATGCCTGCAGGTCGACTCTAGAGGATCCCCGGGTACCGAG
modifications: 5' biotin
For B1, the binding result in data set [1] and in data set [2] was “binds” each time.
